Results on one substance are retold here after publication doi:10.1101/2020.05.26.111013.

This assay concerns the target PelX^C232S (Pseudomonas protegens Pf-5). Nature of the assay: SEC.

PelX^C232S (enzyme) came in with a stoichiometry N of 2.
